Assay results from paper PMC7319778.

Target: human toll-like receptor 4 (TLR4) on HEK293 cells expressing human TLR4-MD2-CD14 (human) (UniProt O00206)
Experiment: flow cytometry on cells

Sequence of UniProt O00206 (O00206 24-839): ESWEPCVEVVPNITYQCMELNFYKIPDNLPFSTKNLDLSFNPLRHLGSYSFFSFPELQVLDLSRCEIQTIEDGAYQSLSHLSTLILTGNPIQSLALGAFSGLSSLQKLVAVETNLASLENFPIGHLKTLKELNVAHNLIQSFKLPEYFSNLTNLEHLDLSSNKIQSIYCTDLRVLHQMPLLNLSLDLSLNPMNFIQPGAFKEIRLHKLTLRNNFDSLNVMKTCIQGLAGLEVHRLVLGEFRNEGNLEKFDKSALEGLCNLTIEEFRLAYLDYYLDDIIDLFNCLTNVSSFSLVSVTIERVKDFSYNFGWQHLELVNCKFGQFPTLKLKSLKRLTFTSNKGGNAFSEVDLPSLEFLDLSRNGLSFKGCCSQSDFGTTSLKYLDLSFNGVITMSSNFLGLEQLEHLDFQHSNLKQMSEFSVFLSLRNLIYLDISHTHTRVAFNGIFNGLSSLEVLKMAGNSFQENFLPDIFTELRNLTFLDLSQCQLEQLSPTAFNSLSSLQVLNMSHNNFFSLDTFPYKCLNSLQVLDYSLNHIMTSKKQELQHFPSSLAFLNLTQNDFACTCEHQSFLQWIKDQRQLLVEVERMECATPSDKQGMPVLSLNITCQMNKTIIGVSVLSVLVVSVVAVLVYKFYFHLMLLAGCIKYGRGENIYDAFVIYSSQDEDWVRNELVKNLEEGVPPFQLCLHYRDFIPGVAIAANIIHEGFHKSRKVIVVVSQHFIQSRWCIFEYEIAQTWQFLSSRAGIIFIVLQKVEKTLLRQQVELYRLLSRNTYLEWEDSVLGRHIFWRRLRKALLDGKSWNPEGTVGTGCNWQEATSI

| Substance | TLR4-binding capacity (percent, flow cytometry) | level of fluorescence (percent, flow cytometry) |
| --- | --- | --- |
| mEDA-HPVE7-16 fusion protein (extra domain A from murine fibronectin fused to E7 protein from HPV16) | 40.2% |  |
| hEDA-HPVE7-16 fusion protein (human extra domain A from fibronectin fused to E7 protein from HPV16) |  | 19.5% |
| hEDA-HPVE7-16/18 fusion protein (human extra domain A from fibronectin fused to E7 proteins from HPV16 and HPV18) | 36.9% |  |
